Measured values reported in patent US20240393333A1.

Key:
[1] = biological target: human intestinal alkaline phosphatase (human) (UniProt P09923); experiment: immunoblot, serial dilution of human small intestinal lysate; 7.5 µg lysate loaded
[2] = biological target: human intestinal alkaline phosphatase (human) (UniProt P09923); experiment: immunoblot, serial dilution of human small intestinal lysate; 3.75 µg lysate loaded
[3] = biological target: human intestinal alkaline phosphatase (human) (UniProt P09923); experiment: immunoblot, serial dilution of human small intestinal lysate; 0.015 µg lysate loaded
[4] = biological target: human intestinal alkaline phosphatase (human) (UniProt P09923); experiment: immunoblot, serial dilution of human small intestinal lysate; 0.029 µg lysate loaded
[5] = biological target: human intestinal alkaline phosphatase (human) (UniProt P09923); experiment: immunoblot, serial dilution of human small intestinal lysate; 0.059 µg lysate loaded
[6] = biological target: human intestinal alkaline phosphatase (human) (UniProt P09923); experiment: immunoblot, serial dilution of human small intestinal lysate; 0.117 µg lysate loaded
[7] = biological target: human intestinal alkaline phosphatase (human) (UniProt P09923); experiment: immunoblot, serial dilution of human small intestinal lysate; 0.234 µg lysate loaded
[8] = biological target: human intestinal alkaline phosphatase (human) (UniProt P09923); experiment: immunoblot, serial dilution of human small intestinal lysate; 0.469 µg lysate loaded
[9] = biological target: human intestinal alkaline phosphatase (human) (UniProt P09923); experiment: immunoblot, serial dilution of human small intestinal lysate; 0.938 µg lysate loaded
[10] = biological target: human intestinal alkaline phosphatase (human) (UniProt P09923); experiment: immunoblot, serial dilution of human small intestinal lysate; 1.875 µg lysate loaded

UniProt P09923, sequence (P09923 20-503 limits assumed): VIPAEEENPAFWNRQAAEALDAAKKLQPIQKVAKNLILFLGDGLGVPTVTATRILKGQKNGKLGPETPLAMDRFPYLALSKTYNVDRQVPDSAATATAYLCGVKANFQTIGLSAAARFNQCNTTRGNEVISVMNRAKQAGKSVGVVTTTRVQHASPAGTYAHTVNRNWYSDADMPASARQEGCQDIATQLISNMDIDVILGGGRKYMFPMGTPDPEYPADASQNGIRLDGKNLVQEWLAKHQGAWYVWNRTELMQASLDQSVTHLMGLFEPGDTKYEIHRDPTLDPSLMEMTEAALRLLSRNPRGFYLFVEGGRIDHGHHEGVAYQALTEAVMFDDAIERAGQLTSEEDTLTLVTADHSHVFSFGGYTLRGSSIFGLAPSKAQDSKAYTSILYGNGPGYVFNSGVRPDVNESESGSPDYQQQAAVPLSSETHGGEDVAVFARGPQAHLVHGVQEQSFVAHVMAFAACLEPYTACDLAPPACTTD

mean relative fluorescence units for the total iAP (relative fluorescence units) [1]: 217000
mean relative fluorescence units for the total iAP (relative fluorescence units) [2]: 234000
mean relative fluorescence units for the total iAP (relative fluorescence units) [3]: 227
mean relative fluorescence units for the total iAP (relative fluorescence units) [4]: 1160
mean relative fluorescence units for the total iAP (relative fluorescence units) [5]: 4920
mean relative fluorescence units for the total iAP (relative fluorescence units) [6]: 18200
mean relative fluorescence units for the total iAP (relative fluorescence units) [7]: 44100
mean relative fluorescence units for the total iAP (relative fluorescence units) [8]: 75700
mean relative fluorescence units for the total iAP (relative fluorescence units) [9]: 143000
mean relative fluorescence units for the total iAP (relative fluorescence units) [10]: 211000
Substance: primary rabbit polyclonal antibodies against human iAP (Abcam, ab7322) (antibody)
